Results on three molecules are retold here after patent US20220089730A1 (IMAGINAB, published 2022).

Changes are numbered by the printed parent chain.

Test [1] deals with T1, PSMA (Prostate-Specific Membrane Antigen), glutamate carboxypeptidase 2 (Homo sapiens, UniProt Q04609 1-750).
T1 construct: also called FOLH1; target antigen expressed on LNCaP-AR cells
Briefly: flow cytometry (FACS) on LNCaP-AR cells and on C4-2 XCL cells.

Test [2] concerns the target T1, PSMA (Prostate-Specific Membrane …). Put plainly: flow cytometry (FACS) on C4-2 XCL cells. Background: Flow cytometry measures light scatter and fluorescence of single cells or particles in a stream.

T1 sequence (Q04609 whole entry): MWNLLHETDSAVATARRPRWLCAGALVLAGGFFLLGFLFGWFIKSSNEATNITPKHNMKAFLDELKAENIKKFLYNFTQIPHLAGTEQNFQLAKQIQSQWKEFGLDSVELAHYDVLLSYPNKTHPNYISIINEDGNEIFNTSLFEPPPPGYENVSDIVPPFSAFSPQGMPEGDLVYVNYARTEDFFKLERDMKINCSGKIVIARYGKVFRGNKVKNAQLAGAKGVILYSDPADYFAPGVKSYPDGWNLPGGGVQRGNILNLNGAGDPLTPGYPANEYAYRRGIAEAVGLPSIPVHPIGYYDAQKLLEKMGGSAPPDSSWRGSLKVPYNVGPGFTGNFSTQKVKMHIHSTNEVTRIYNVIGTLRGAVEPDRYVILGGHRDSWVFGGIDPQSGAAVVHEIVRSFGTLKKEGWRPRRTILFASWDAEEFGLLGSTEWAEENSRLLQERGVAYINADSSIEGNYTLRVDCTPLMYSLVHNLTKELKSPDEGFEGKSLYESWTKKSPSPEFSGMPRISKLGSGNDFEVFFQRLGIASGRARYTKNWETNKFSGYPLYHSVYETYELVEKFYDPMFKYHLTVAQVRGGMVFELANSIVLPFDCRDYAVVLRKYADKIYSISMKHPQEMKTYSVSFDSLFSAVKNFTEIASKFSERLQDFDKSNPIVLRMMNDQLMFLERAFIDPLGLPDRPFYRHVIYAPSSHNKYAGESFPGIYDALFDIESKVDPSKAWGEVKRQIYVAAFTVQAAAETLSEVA

B1: IAB2M γ1 EH1 (other)
chain: DIVMTQSPSSLSASVGDRVTITCKASQDVGTAVDWYQQKPGKAPKLLIYWASTRHTGVPDRFTGSGSGTDFTLTISSLQPEDFADYFCQQYNSYPLTFGGGTKLEIKGSTSGGGSGGGSGGGGSSEVQLVQSGAEVKKPGASVKISCKTSGYTFTEYTIHWVKQASGKGLEWIGNINPNNGGTTYNQKFEDRATLTVDKSTSTAYMELSSLRSEDTAVYYCAAGWNFDYWGQGTTVTVSSEPKSCDKTHTCPPCGGGSSGGGSGGQPREPQVYTLPPSRDELTKNQVSLTCLVKGFYPSDIAVEWESNGQPENNYKTTPPVLDSDGSFFLYSKLTVDKSRWQQGNVFSCSVMHEALHNHYTQKSLSLSPGK
notes: Anti-PSMA minibody: homodimer of scFv-hinge-CH3
As for B1, in test [1], the binding result is on record as “binds”.

B2: IAB2M γ1 EH2 (other)
chain: B1 chain with C245S
notes: as for B1
In the case of B2, the binding result in test [1] is “binds”.

B3: IAB2M γ2 EH1 (other)
chain: DIVMTQSPSSLSASVGDRVTITCKASQDVGTAVDWYQQKPGKAPKLLIYWASTRHTGVPDRFTGSGSGTDFTLTISSLQPEDFADYFCQQYNSYPLTFGGGTKLEIKGSTSGGGSGGGSGGGGSSEVQLVQSGAEVKKPGASVKISCKTSGYTFTEYTIHWVKQASGKGLEWIGNINPNNGGTTYNQKFEDRATLTVDKSTSTAYMELSSLRSEDTAVYYCAAGWNFDYWGQGTTVTVSSERKCCVECPPCPGGGSSGGGSGGQPREPQVYTLPPSREEMTKNQVSLTCLVKGFYPSDIAVEWESNGQPENNYKTTPPMLDSDGSFFLYSKLTVDKSRWQQGNVFSCSVMHEALHNHYTQKSLSLSPGK
notes: as for B1
B3: in test [2], the binding result is reported as “binds”.
